Read-outs that look alike come from different tables or passages of the source.
What was measured:
[1] = biological target: E. coli MG1655 SPase (LepB) with Ala at residue 84, in the strain (Escherichia coli K-12 MG1655) (UniProt P00803); experiment: cell-based or functional assay
[2] = biological target: E. coli MG1655 SPase (LepB) with Arg at residue 84, in the strain (Escherichia coli K-12 MG1655) (UniProt P00803); experiment: cell-based or functional assay
[3] = biological target: E. coli MG1655 SPase (LepB) with Asn at residue 84, in the strain (Escherichia coli K-12 MG1655) (UniProt P00803); experiment: cell-based or functional assay
[4] = biological target: E. coli MG1655 SPase (LepB) with Asp at residue 84, in the strain (Escherichia coli K-12 MG1655) (UniProt P00803); experiment: cell-based or functional assay
[5] = biological target: E. coli MG1655 SPase (LepB) with Cys at residue 84, in the strain (Escherichia coli K-12 MG1655) (UniProt P00803); experiment: cell-based or functional assay
[6] = biological target: E. coli MG1655 SPase (LepB) with Gln at residue 84, in the strain (Escherichia coli K-12 MG1655) (UniProt P00803); experiment: cell-based or functional assay
[7] = biological target: E. coli MG1655 SPase (LepB) with Glu at residue 84, in the strain (Escherichia coli K-12 MG1655) (UniProt P00803); experiment: cell-based or functional assay
[8] = biological target: E. coli MG1655 SPase (LepB) with Gly at residue 84, in the strain (Escherichia coli K-12 MG1655) (UniProt P00803); experiment: cell-based or functional assay
[9] = biological target: E. coli MG1655 SPase (LepB) with His at residue 84, in the strain (Escherichia coli K-12 MG1655) (UniProt P00803); experiment: cell-based or functional assay
[10] = biological target: E. coli MG1655 SPase (LepB) with Ile at residue 84, in the strain (Escherichia coli K-12 MG1655) (UniProt P00803); experiment: cell-based or functional assay
[11] = biological target: E. coli MG1655 SPase (LepB) with Leu at residue 84, in the strain (Escherichia coli K-12 MG1655) (UniProt P00803); experiment: cell-based or functional assay
[12] = biological target: E. coli MG1655 SPase (LepB) with Lys at residue 84, in the strain (Escherichia coli K-12 MG1655) (UniProt P00803); experiment: cell-based or functional assay
[13] = biological target: E. coli MG1655 SPase (LepB) with Met at residue 84, in the strain (Escherichia coli K-12 MG1655) (UniProt P00803); experiment: cell-based or functional assay
[14] = biological target: E. coli MG1655 SPase (LepB) with Phe at residue 84, in the strain (Escherichia coli K-12 MG1655) (UniProt P00803); experiment: cell-based or functional assay
[15] = biological target: E. coli MG1655 SPase (LepB) with Thr at residue 84, in the strain (Escherichia coli K-12 MG1655) (UniProt P00803); experiment: cell-based or functional assay
[16] = biological target: E. coli MG1655 SPase (LepB) with Trp at residue 84, in the strain (Escherichia coli K-12 MG1655) (UniProt P00803); experiment: cell-based or functional assay
[17] = biological target: E. coli MG1655 SPase (LepB) with Tyr at residue 84, in the strain (Escherichia coli K-12 MG1655) (UniProt P00803); experiment: cell-based or functional assay
[18] = biological target: E. coli MG1655 SPase (LepB) with Val at residue 84, in the strain (Escherichia coli K-12 MG1655) (UniProt P00803); experiment: cell-based or functional assay
[19] = biological target: E. coli MG1655 SPase (LepB), wild type, in the strain (Escherichia coli K-12 MG1655) (UniProt P00803); experiment: cell-based or functional assay
[20] = biological target: E. coli SPase (LepB) P84S, in strain PAS0232 (Escherichia coli K-12 MG1655) (UniProt P00803); experiment: cell-based or functional assay
[21] = biological target: P. aeruginosa PAO1 SPase (LepB) P84L, in the strain lepB(P84L) P. aeruginosa PAO1 (Pseudomonas aeruginosa PAO1) (UniProt Q9I5G7); experiment: cell-based or functional assay
[22] = biological target: P. aeruginosa PAO1 SPase (LepB), wild type, in the strain (Pseudomonas aeruginosa PAO1) (UniProt Q9I5G7); experiment: cell-based or functional assay
[23] = biological target: P. aeruginosa SPase (LepB) P84S, in strain PAS2006 (Pseudomonas aeruginosa PAO1) (UniProt Q9I5G7); experiment: cell-based or functional assay
[24] = biological target: S. aureus NCTC 8325 SPase (SpsB), wild type, in the strain (Staphylococcus aureus NCTC 8325); experiment: cell-based or functional assay
[25] = biological target: S. aureus SPase (SpsB) P29S, in strain PAS8001 (Staphylococcus aureus NCTC 8325); experiment: cell-based or functional assay
[26] = biological target: S. epidermidis RP62A signal peptidase IB (SpsIB), wild type, in the strain (Staphylococcus epidermidis RP62A); experiment: cell-based or functional assay
[27] = biological target: S. epidermidis SpsIB S29P, in strain PAS9001 (Staphylococcus epidermidis RP62A); experiment: cell-based or functional assay
[28] = biological target: S. epidermidis SpsIB S31P, in strain PAS9002 (Staphylococcus epidermidis RP62A); experiment: cell-based or functional assay
[29] = biological target: E. coli MG1655 SPase (LepB) with His at residue 84, in the strain (Escherichia coli K-12 MG1655) (UniProt P00803); experiment: cell-based or functional assay; remark: listed apart in the source
[30] = biological target: E. coli MG1655 SPase (LepB) with Phe at residue 84, in the strain (Escherichia coli K-12 MG1655) (UniProt P00803); experiment: cell-based or functional assay; remark: listed apart in the source
[31] = biological target: detergent-solubilized full-length His-tagged E. coli SPase, P84S variant (Escherichia coli) (UniProt P00803); experiment: steady-state binding by increase of arylomycin fluorescence, detergent-solubilized full-length SPase
[32] = biological target: detergent-solubilized full-length His-tagged E. coli SPase, wild type (Escherichia coli) (UniProt P00803); experiment: as above
[33] = biological target: full-length His-tagged S. aureus SPase (SpsB), P29S mutant (Staphylococcus aureus NCTC 8325); experiment: steady-state binding by increase of arylomycin fluorescence, full-length SPase, buffer with 10% glycerol
[34] = biological target: full-length His-tagged S. aureus SPase (SpsB), wild type (Staphylococcus aureus NCTC 8325); experiment: as above
[35] = biological target: P84S variant of the truncated E. coli SPase (Δ2-75) (Escherichia coli K-12 MG1655) (UniProt P00803); experiment: steady-state binding by increase of arylomycin fluorescence (ex 320 nm, em 410 nm), SPase in n-octyl-β-glucopyranoside micelles
[36] = biological target: truncated wild type E. coli SPase that lacks the N-terminal membrane helices (Δ2-75) (Escherichia coli K-12 MG1655) (UniProt P00803); experiment: as above
[37] = biological target: full-length His-tagged S. aureus SPase (SpsB), P29S mutant (Staphylococcus aureus NCTC 8325); experiment: equilibrium binding by the increase of arylomycin fluorescence (ex 320 nm, em 410 nm) with full-length His-tagged S. aureus SPase
[38] = biological target: full-length His-tagged S. aureus SPase (SpsB), wild type (Staphylococcus aureus NCTC 8325); experiment: as above
[39] = biological target: P84S variant of the truncated E. coli SPase (Δ2-75) (Escherichia coli K-12 MG1655) (UniProt P00803); experiment: steady state binding by the increase of arylomycin fluorescence (ex 320 nm, em 410 nm) with soluble N-terminally truncated E. coli SPase
[40] = biological target: truncated wild type E. coli SPase that lacks the N-terminal membrane helices (Δ2-75) (Escherichia coli K-12 MG1655) (UniProt P00803); experiment: as above
[41] = biological target: detergent-solubilized full-length His-tagged E. coli SPase, P84S variant (Escherichia coli) (UniProt P00803); experiment: equilibrium binding by the increase of arylomycin fluorescence (ex 320 nm, em 410 nm) with detergent-solubilized full-length E. coli SPase
[42] = biological target: detergent-solubilized full-length His-tagged E. coli SPase, wild type (Escherichia coli) (UniProt P00803); experiment: as above

Q: Which results are given for arylomycin C16 (peptide)?
A: MIC of arylomycin C16 for the E. coli strain with this residue 84 [1]: < 16 µg/mL; MIC of arylomycin C16 for the E. coli strain with this residue 84 [2]: < 16 µg/mL; MIC of arylomycin C16 for the E. coli strain with this residue 84 [3]: < 16 µg/mL; MIC of arylomycin C16 for the E. coli strain with this residue 84 [4]: < 16 µg/mL; MIC of arylomycin C16 for the E. coli strain with this residue 84 [5]: < 16 µg/mL; MIC of arylomycin C16 for the E. coli strain with this residue 84 [6]: < 16 µg/mL; MIC of arylomycin C16 for the E. coli strain with this residue 84 [7]: < 16 µg/mL; MIC of arylomycin C16 for the E. coli strain with this residue 84 [8]: < 16 µg/mL; MIC of arylomycin C16 for the E. coli strain with this residue 84 [9]: < 16 µg/mL; MIC of arylomycin C16 for the E. coli strain with this residue 84 [10]: < 16 µg/mL; MIC (µg/ml) of arylomycin C16 for the sensitive E. coli strain [11]: 0.5 µg/mL; MIC of arylomycin C16 for the E. coli strain with this residue 84 [11]: < 16 µg/mL; MIC of arylomycin C16 for the E. coli strain with this residue 84 [12]: < 16 µg/mL; MIC of arylomycin C16 for the E. coli strain with this residue 84 [13]: < 16 µg/mL; MIC of arylomycin C16 for the E. coli strain with this residue 84 [14]: < 16 µg/mL; MIC of arylomycin C16 for the E. coli strain with this residue 84 [15]: < 16 µg/mL; MIC of arylomycin C16 for the E. coli strain with this residue 84 [16]: < 16 µg/mL; MIC of arylomycin C16 for the E. coli strain with this residue 84 [17]: < 16 µg/mL; MIC of arylomycin C16 for the E. coli strain with this residue 84 [18]: < 16 µg/mL; MIC (µg/mL) of arylomycin C16 for the strain [19]: > 128 µg/mL; MIC (µg/ml) of arylomycin C16 for the resistant E. coli strain [19]: > 64 µg/mL; MIC of arylomycin C16 for the E. coli strain with this residue 84 [19]: > 256 µg/mL; MIC (µg/mL) of arylomycin C16 for the strain [20]: 2 µg/mL; MIC of arylomycin C16 for the E. coli strain with this residue 84 [20]: < 16 µg/mL; MIC (µg/ml) of arylomycin C16 for the sensitive P. aeruginosa strain [21]: 8 µg/mL; MIC (µg/mL) of arylomycin C16 for the strain [22]: > 128 µg/mL; MIC (µg/ml) of arylomycin C16 for the resistant P. aeruginosa strain [22]: > 64 µg/mL; MIC (µg/mL) of arylomycin C16 for the strain [23]: 8 µg/mL; MIC (µg/mL) of arylomycin C16 for the strain [24]: > 128 µg/mL; MIC (µg/ml) of arylomycin C16 for the resistant S. aureus strain [24]: > 64 µg/mL; MIC (µg/mL) of arylomycin C16 for the strain [25]: 2 µg/mL; MIC (µg/ml) of arylomycin C16 for the sensitive S. aureus strain [25]: 2 µg/mL; MIC (µg/mL) of arylomycin C16 for the strain [26]: 0.25 µg/mL; MIC (µg/ml) of arylomycin C16 for the sensitive S. epidermidis strain [26]: 0.5 µg/mL; MIC (µg/mL) of arylomycin C16 for the strain [27]: 8 µg/mL; MIC (µg/ml) of arylomycin C16 for the resistant S. epidermidis strain [27]: 8 µg/mL; fold elevation of the MIC over the wild type strain [27]: 32 fold; MIC (µg/mL) of arylomycin C16 for the strain [28]: > 128 µg/mL; fold elevation of the MIC over the wild type strain [28]: > 256 fold; MIC of arylomycin C16 for the E. coli strain with this residue 84 [29]: 4 µg/mL; MIC of arylomycin C16 for the E. coli strain with this residue 84 [30]: 2 µg/mL; Kd [31]: 5.7 nM; Kd [32]: 60 nM; Kd [33]: 130 nM; Kd [34]: 1280 nM; Kd [35]: 39 nM; Kd [36]: 979 nM; EC50 (read off the curve) [37]: 200 nM; EC50 (read off the curve) [38]: 2000 nM; EC50 (read off the curve) [39]: 100 nM; EC50 (read off the curve) [40]: 2000 nM; EC50 (read off the curve) [41]: 10 nM; Kd [41]: 5.73 nM; EC50 (read off the curve) [42]: 100 nM

— patent publication US20130281360A1
